Experimental data as given in PMC2976697.

Molecular target: Helicobacter pylori CCUG 17874 L-asparaginase (Helicobacter pylori CCUG 17874) (UniProt O25424)
Experiment: non-reducing SDS-PAGE with LC-MS/MS of the band; active Superdex 75 fractions of BCF, mixed with non-reducing SDS buffer, 10-12% SDS-PAGE; band at about 121 kDa cut out, trypsin digested and identified by LC-MS/MS

Q: How did the stoichiometry N turn out when “Helicobacter pylori CCUG 17874 L-asparaginase (from UniProt O25424 1-330) (enzyme)” was run?
A: 4
